According to patent US20250025549A1:

What was measured:
[1] = biological target: dipeptidyl peptidase IV (DPP4), the MERS-CoV receptor, His-tagged (human) (UniProt P27487); test: ELISA, spike coated, His-tagged hDPP4 titrated
[2] = biological target: dipeptidyl peptidase IV (DPP4), the MERS-CoV receptor, His-tagged (human) (UniProt P27487)

dipeptidyl peptidase IV (DPP4), the MERS-CoV receptor, His-tagged (human), sequence (P27487 29-766 limits assumed): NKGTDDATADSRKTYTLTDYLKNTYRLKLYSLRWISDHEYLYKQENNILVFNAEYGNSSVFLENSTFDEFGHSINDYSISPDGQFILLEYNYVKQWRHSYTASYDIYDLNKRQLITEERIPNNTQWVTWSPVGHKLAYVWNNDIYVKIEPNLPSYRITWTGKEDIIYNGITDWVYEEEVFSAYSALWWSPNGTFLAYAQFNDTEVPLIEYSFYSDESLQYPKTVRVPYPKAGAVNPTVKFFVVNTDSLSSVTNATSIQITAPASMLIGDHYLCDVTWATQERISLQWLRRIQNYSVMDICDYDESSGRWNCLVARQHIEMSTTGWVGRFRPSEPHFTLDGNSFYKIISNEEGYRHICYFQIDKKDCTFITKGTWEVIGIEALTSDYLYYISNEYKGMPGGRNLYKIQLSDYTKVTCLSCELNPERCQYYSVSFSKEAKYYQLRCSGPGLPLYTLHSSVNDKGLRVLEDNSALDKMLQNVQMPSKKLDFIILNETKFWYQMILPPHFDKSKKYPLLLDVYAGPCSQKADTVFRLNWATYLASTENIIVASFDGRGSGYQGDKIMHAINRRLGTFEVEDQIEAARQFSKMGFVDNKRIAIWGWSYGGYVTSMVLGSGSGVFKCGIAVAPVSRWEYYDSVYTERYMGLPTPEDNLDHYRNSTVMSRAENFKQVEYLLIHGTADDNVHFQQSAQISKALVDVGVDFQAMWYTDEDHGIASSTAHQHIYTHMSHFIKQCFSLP

With “wild-type BV2361 protein (SEQ ID NO: 2), native SARS-CoV-2 Spike (S) polypeptide (from UniProt P0DTC2 14-1273) (other; other documents disagree on this pair)” the EC50 [1] was greater than 5 µg/mL and the IC50 [2] was greater than 5 µg/mL.
